Reference: US20040132121A1, “Method of identifying antibacterial compounds” (priority 2000, published 2004)

Experiments:
[1] = biological target: E. coli β fused to the B42 transcriptional activation domain (plasmid pB42ADβ) (Escherichia coli) (UniProt P0A988)
[2] = biological target: Escherichia coli β subunit of DNA Polymerase III (β protein) (Escherichia coli) (UniProt P0A988)

Chain of LexA-MutS (802-818) fusion (plasmid pLexAMutS(802-818)) (P0A7C2 other isoform, or with tags, fused parts or gaps): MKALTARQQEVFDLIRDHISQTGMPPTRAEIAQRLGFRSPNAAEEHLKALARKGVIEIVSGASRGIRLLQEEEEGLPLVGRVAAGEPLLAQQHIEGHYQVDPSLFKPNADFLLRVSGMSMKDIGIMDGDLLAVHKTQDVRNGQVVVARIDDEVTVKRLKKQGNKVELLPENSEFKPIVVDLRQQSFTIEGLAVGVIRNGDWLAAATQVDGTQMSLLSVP
Chain of LexA-PolB (779-783) fusion (plasmid pLexAPolB(779-783)) (P0A7C2 other isoform, or with tags, fused parts or gaps limits assumed): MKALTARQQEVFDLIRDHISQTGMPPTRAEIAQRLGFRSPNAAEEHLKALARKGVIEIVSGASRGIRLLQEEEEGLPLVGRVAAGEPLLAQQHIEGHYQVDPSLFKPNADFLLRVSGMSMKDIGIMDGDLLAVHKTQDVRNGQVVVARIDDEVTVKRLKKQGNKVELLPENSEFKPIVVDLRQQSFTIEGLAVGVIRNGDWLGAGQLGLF
Chain of LexA-DinB (307-317) fusion (plasmid pLexADinB (307-317)) (P0A7C2 other isoform, or with tags, fused parts or gaps): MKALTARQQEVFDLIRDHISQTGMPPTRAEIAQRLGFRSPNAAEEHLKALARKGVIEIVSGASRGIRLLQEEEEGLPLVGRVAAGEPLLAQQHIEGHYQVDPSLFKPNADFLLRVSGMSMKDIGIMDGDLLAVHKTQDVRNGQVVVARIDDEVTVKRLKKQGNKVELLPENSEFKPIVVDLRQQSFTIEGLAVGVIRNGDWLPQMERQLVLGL

Substance	β-gal activity Miller units (yeast two-hybrid; interact with β: +) [1]	further results
LexA-DnaE (542-991) fusion (plasmid pLexADnaE (542-991)) (from UniProt P0A7C2 1-202; P10443 542-991)	60.1 Miller units	–
LexA-DnaE (908-931) fusion (plasmid pLexADnaE (908-931)) (from UniProt P0A7C2 1-202; P10443 908-931)	32.3 Miller units	–
LexA-DnaE (896-919) fusion (plasmid pLexADnaE (896-919)) (from UniProt P0A7C2 1-202; P10443 896-919)	–	β-gal activity Miller units (yeast two-hybrid; interact with β: -) [1]: 0.1 Miller units
LexA-DinB (307-317) fusion (plasmid pLexADinB (307-317)) (from UniProt P0A7C2 1-202)	75.1 Miller units	–
LexA-UmuC (351-365) fusion (plasmid pLexAUmuC(351-365)) (from UniProt P0A7C2 1-202)	94.8 Miller units	–
pLexA	–	β-gal activity Miller units (yeast two-hybrid; interact with β: -) [1]: 1.5 Miller units
LexA-MutS (802-818) fusion (plasmid pLexAMutS(802-818)) (from UniProt P0A7C2 1-202)	43.8 Miller units	–
LexA-DnaE (736-991) fusion (from UniProt P0A7C2 1-202; P10443 736-991)	135 Miller units	–
LexA-PolB (779-783) fusion (plasmid pLexAPolB(779-783)) (from UniProt P0A7C2 1-202)	69.6 Miller units	–
pep18 Ac-DLF-NH2 (peptide)	–	IC50 [2]: 135 µM
LexA-DnaE (542-735) fusion (from UniProt P0A7C2 1-202; P10443 542-735)	–	β-gal activity Miller units (yeast two-hybrid; interact with β: -) [1]: 1.1 Miller units
